Results from article PMC2799420.

Biological target: Lyngbya majuscula JHB protein 7968 (Lyngbya majuscula JHB)
Assay: PAGE analysis; kind of PAGE (native or SDS) and conditions not told; mentioned only in the discussion

Substance: Lyngbya majuscula JHB protein 7968 (natural protein)
- stoichiometry N: 2
